Experiments:
[1] = tested on: CCR5B R10 TALEN (Artificial (Xanthomonas TALE-FokI)); assay: cleavage_in_vitro; conditions: as L10+R10 pair
[2] = tested on: CCR5A R18 TALEN canonical ELD/KKR (Artificial (Xanthomonas TALE-FokI)); assay: cell_activity
[3] = tested on: CCR5B R13 TALEN (Artificial (Xanthomonas TALE-FokI)); assay: cleavage_in_vitro; conditions: as L13+R13 pair
[4] = tested on: CCR5B L13 TALEN (Artificial (Xanthomonas TALE-FokI)); assay: cleavage_in_vitro; conditions: as L13+R13 pair
[5] = tested on: CCR5B L16 TALEN (Artificial (Xanthomonas TALE-FokI)); assay: cleavage_in_vitro; conditions: as L16+R16 pair
[6] = tested on: ATM R18 TALEN N1 EL/KK (Artificial (Xanthomonas TALE-FokI)); assay: cleavage_in_vitro; conditions: as pair, 12 nM
[7] = tested on: ATM R18 TALEN N2 EL/KK (Artificial (Xanthomonas TALE-FokI)); assay: cleavage_in_vitro; conditions: as pair, 12 nM
[8] = tested on: ATM R18 TALEN N3 EL/KK (Artificial (Xanthomonas TALE-FokI)); assay: cleavage_in_vitro; conditions: as pair, 12 nM
[9] = tested on: ATM R18 TALEN Q3 EL/KK (Artificial (Xanthomonas TALE-FokI)); assay: cleavage_in_vitro; conditions: as pair, 12 nM
[10] = tested on: ATM R18 TALEN Q7 EL/KK (Artificial (Xanthomonas TALE-FokI)); assay: cleavage_in_vitro; conditions: as pair, 12 nM
[11] = tested on: ATM R18 TALEN canonical EL/KK (Artificial (Xanthomonas TALE-FokI)); assay: cleavage_in_vitro; conditions: as pair, 12 nM
[12] = tested on: CCR5A R18 TALEN Q3 ELD/KKR (Artificial (Xanthomonas TALE-FokI)); assay: cell_activity
[13] = tested on: CCR5A R18 TALEN Q7 ELD/KKR (Artificial (Xanthomonas TALE-FokI)); assay: cell_activity
[14] = tested on: CCR5B R16 TALEN (Artificial (Xanthomonas TALE-FokI)); assay: cleavage_in_vitro; conditions: as L16+R16 pair
[15] = tested on: CCR5B L10 TALEN (Artificial (Xanthomonas TALE-FokI)); assay: cleavage_in_vitro; conditions: as L10+R10 pair
[16] = tested on: CCR5A R18 TALEN 28-aa EL/KK (Artificial (Xanthomonas TALE-FokI)); assay: cleavage_in_vitro; conditions: as pair, 16 nM
[17] = tested on: CCR5A R18 TALEN N1 EL/KK (Artificial (Xanthomonas TALE-FokI)); assay: cleavage_in_vitro; conditions: as pair, 16 nM
[18] = tested on: CCR5A R18 TALEN N2 EL/KK (Artificial (Xanthomonas TALE-FokI)); assay: cleavage_in_vitro; conditions: as pair, 16 nM
[19] = tested on: CCR5A R18 TALEN N3 EL/KK (Artificial (Xanthomonas TALE-FokI)); assay: cleavage_in_vitro; conditions: as pair, 16 nM
[20] = tested on: CCR5A R18 TALEN Q3 EL/KK (Artificial (Xanthomonas TALE-FokI)); assay: cleavage_in_vitro; conditions: as pair, 16 nM
[21] = tested on: CCR5A R18 TALEN Q7 EL/KK (Artificial (Xanthomonas TALE-FokI)); assay: cleavage_in_vitro; conditions: as pair, 16 nM
[22] = tested on: CCR5A R18 TALEN canonical EL/KK (Artificial (Xanthomonas TALE-FokI)); assay: cleavage_in_vitro; conditions: as L18+R18 pair, 16 nM
[23] = tested on: ATM L18 TALEN N1 EL/KK (Artificial (Xanthomonas TALE-FokI)); assay: cleavage_in_vitro; conditions: as pair, 12 nM
[24] = tested on: ATM L18 TALEN N2 EL/KK (Artificial (Xanthomonas TALE-FokI)); assay: cleavage_in_vitro; conditions: as pair, 12 nM
[25] = tested on: ATM L18 TALEN N3 EL/KK (Artificial (Xanthomonas TALE-FokI)); assay: cleavage_in_vitro; conditions: as pair, 12 nM
[26] = tested on: ATM L18 TALEN Q3 EL/KK (Artificial (Xanthomonas TALE-FokI)); assay: cleavage_in_vitro; conditions: as pair, 12 nM
[27] = tested on: ATM L18 TALEN Q7 EL/KK (Artificial (Xanthomonas TALE-FokI)); assay: cleavage_in_vitro; conditions: as pair, 12 nM
[28] = tested on: ATM L18 TALEN canonical EL/KK (Artificial (Xanthomonas TALE-FokI)); assay: cleavage_in_vitro; conditions: as L18+R18 pair, 12 nM

CATACAGTCA (double strand) [CCR5B R10 half-site]
activity (fold enrichment) [1]: 44

CTCATCAATTCTGGGTGA (double strand) [OffC-13 right half-site]
activity ([2]; pair, off-target, no indels): < 0.006 % modified

GATATCCTTTCTGGAAGA (double strand) [OffC-28 right half-site]
activity ([2]; pair, off-target, 19 bp spacer): 0.163 % modified

CATACAGTCAGTA (double strand) [CCR5B R13 half-site]
activity (fold enrichment) [3]: 113

TCATTACACCTGC (double strand) [CCR5B L13 half-site]
activity (fold enrichment) [4]: 113

TCTTCATTACACCTGC (double strand) [CCR5B L16 half-site]
activity (fold enrichment) [5]: 59.4

TTTATTTTACTGTCTTTA (double strand) [ATM right half-site]
activity (fold enrichment) [6]: 57.2
activity (fold enrichment) [7]: 119
activity (fold enrichment) [8]: 201
activity (fold enrichment) [9]: 50.4
activity (fold enrichment) [10]: 513
activity (fold enrichment) [11]: 20.5

AGGAGCAACTCTGGGAGA (double strand) [OffC-5 right half-site]
activity ([12]; pair, off-target): 0.085 % modified
activity ([13]; pair, off-target, no indels detected): < 0.006 % modified
activity ([2]; pair, off-target, 14 bp spacer): 2.21 % modified

CATACAGTCAGTATCA (double strand) [CCR5B R16 half-site]
activity (fold enrichment) [14]: 59.4

TTACACCTGC (double strand) [CCR5B L10 half-site]
activity (fold enrichment) [15]: 44

GGTATCTATCCTGGAATA (double strand) [OffC-15 right half-site]
activity ([2]; pair, off-target, 26 bp spacer): 0.23 % modified

AGCATCAATCCTGGAAGA (double strand) [OffC-16 right half-site]
activity ([2]; pair, off-target, 28 bp spacer): 0.031 % modified

AGTATCAATTCTGGAAGA (double strand) [CCR5A right half-site]
activity ([12]; pair in U2OS-EGFP cells): 24.3 % modified
activity ([13]; pair in U2OS-EGFP cells): 5.57 % modified
activity ([2]; pair in U2OS-EGFP cells): 27.6 % modified
activity (fold enrichment) [16]: 70.4
activity (fold enrichment) [17]: 19
activity (fold enrichment) [18]: 41.7
activity (fold enrichment) [19]: 174
activity (fold enrichment) [20]: 18.6
activity (fold enrichment) [21]: 62.3
activity (fold enrichment) [22]: 12.2

TGAATTGGGATGCTGTTT (double strand) [ATM left half-site]
activity (fold enrichment) [23]: 57.2
activity (fold enrichment) [24]: 119
activity (fold enrichment) [25]: 201
activity (fold enrichment) [26]: 50.4
activity (fold enrichment) [27]: 513
activity (fold enrichment) [28]: 20.5

From US9359599
